Assay results as given in publication PMC3526295.

T1: Mre11-W243R (Homo sapiens, UniProt P49959 1-708, W243R)
T1 sequence: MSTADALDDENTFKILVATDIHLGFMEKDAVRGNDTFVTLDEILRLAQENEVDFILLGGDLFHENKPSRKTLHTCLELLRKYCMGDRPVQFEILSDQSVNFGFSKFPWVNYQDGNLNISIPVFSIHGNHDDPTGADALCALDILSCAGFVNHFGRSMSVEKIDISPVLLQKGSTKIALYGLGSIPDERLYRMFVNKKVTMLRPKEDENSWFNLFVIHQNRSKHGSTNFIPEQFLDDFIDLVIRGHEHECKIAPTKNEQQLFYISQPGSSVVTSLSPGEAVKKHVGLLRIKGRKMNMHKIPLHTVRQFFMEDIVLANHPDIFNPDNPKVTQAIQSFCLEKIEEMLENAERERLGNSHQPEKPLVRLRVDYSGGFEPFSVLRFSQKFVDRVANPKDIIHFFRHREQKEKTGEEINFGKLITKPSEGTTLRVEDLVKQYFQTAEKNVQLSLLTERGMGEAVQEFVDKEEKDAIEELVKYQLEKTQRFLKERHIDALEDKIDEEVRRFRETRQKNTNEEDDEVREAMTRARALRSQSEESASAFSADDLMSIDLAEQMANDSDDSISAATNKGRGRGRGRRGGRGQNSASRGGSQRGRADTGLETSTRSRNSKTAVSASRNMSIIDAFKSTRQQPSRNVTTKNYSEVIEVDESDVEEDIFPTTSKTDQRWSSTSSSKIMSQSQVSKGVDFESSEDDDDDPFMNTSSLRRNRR

B1: ssDNA90 (ssDNA)
DNA: AATTCTCATTTTACTTACCGGACGCTATTAGCAGTGGCAGATTGTACTGAGAGTGCACCATATGCGGTGTGAAATACCGCACAGATGCGT
B2: dsDNA90 (dsDNA)
DNA 1: AATTCTCATTTTACTTACCGGACGCTATTAGCAGTGGCAGATTGTACTGAGAGTGCACCATATGCGGTGTGAAATACCGCACAGATGCGT
DNA 2: ACGCATCTGTGCGGTATTTCACACCGCATATGGTGCACTCTCAGTACAATCTGCCACTGCTAATAGCGTCCGGTAAGTAAAATGAGAATT

Molecular target: T1, Mre11-W243R
Test: EMSA

Row | Binder | binding result
1 | B1 | binds
2 | B2 | binds
